This data set is described as follows: label from the status in PepcDB records.
For the sequence “MSKIASEVVATTLNDWYIAIKKQKVDESIKYYSEIKKLFDEMEEDQEVLAYYSLLEERHKMLLHSSRGEPLQKHTYFTEDNQNFITKTNDKLEYNFYLFEAMYEAYNKNYDRAINLYGLAEKKLAEIPDEIEAAEFYSKVSYLYTLVKQSIVAQHYIKNAISIYKRHPDYKCKLATSTMIAAANYADMKRFEEAEQYYLEAIDIAKETKDEFLKAQLFHNLSIVYSDWNKPDKCIESLEKAIGNESWLHSIYYINSLFMMIKELFKIDEKMKAINFYNKAQERLILMENKVYEAKISILYNLYCGELKNNFNNCISNIEFLKQQNELESVDELSYIAAKRFESIGAFEEATSFFNAKIWAEQKMNQVEGIL”, the protein production result is reported as “failed”.

For the sequence “MMKIYLIEHVIGAVAYDENGNIVDYITNPRDLGKITEELLNNEKGIPFSATVELLKKVNPQEVVVENEAEVPKLQALGYRVSYEPYSKVSRIFRESLPKVAIDIKFASNEEDYYNFLHELSLEYTRRKLRSAAQKRDLLAIQAVRAMDDIDKTINLFSERLREWYSIHFPELDKLIEDHEEYATIVSRFGDRGFLTIDSLKELGFNEQRINRILDAAKKSIGADISEDDLSAMRMIANTILDLYNIRRNLNNYLEGVMKEVAPNVTALVGPALGARLLSIAGSLDELAKMPASTIQVLGAEKALFRALRSGGRPPKHGIIFQYPAIHTSPRWQRGKIARALAAKLAIAARVDAFSGRFIGDQLNEQLKKRIDEIKEKFAQPPPKKPQQQKPQQPQKQQAKGKKGGKRRGKRK”, the protein production entry is given as “failed”. “MTDRLERKLAIAANQDKADLLIKNGQIVDVFQLETFEGDVVIADGEIVAISDPGTYEAHEEVDAKGAFIAPAFIDGHVHIESSMVAPEQFAKVVVPHGVTTVIADPHEIANVAGVQGVEYMLDASEGIPLDVKMMVPSCVPATPFEHSGARLTAEEVAELFRDPRIFGLGEVMDYPAVLTRDQEMMAKLKAAHSEGRIVDGHGAGLDSVALNAYTAAGIGNDHEAVTPEEAKARLQRGMYLLIREGTAAKDFDALMKAITPMNSRRALFVTDDKHLDELVEEGSIDHHVRKAIQIGVNPLQAIQMASLNAAECFKLAKKGAIAPGFTADLLFIEDLQSLAITHVFKNGTCVAKNGKLIVPIRETVQPPQRLLESVNMKLVTKEQLELSLQSDEEAHLIQIQPGSIVTKHIREKVAVKDGVFIPSVARDQLKLVVAERHHKRGTVGVGIVKGFGLTKGAIATTVAHDSHNIVAVGTNDEDLLAAIKELENIQGGMTIVKDGKVLVSLPLTIGGLMSDQSYDVVCEQIKSVDAAIGALGFVGDFNPFLTLSFLALPVIPEIKLTDQGLFDVTSFSFIDQQVYAEETN”: the protein production result is “failed”.

Consider “MGGKRHQNSGKGGKGRAKDAASAPQPNAGKVTLEGRSFLYVGGRDCQVAHLRQIASSYGAELIHHDGGLREAVSRIDRVLPSVDCVFCPIDCISHDACLRVKTGCKKWGKAFVPLRNGSKSSLEHHHHHH”, for which the protein production entry is “not failed”.

Regarding “MKAGLIMRHDVMSILHAFCMIAENHSFTRAAAQLHISTSALSQNMRQLEDELGVKLLNRTTRRVGLTEAGHAFLASIRPALAHIDEAMEHARQSRDIPGGTLRLTVPRTAATLLLQPNLAGFMRDYPDIRLDIDVNDGFVDLINERFDAGIRFGDAVQLDMNVVPLGDVLRPAIVASPAYLARFGTPLHPQELINHRCLCHRFTRESGLYRWEFVHGAQRLEITPEAALMVNDKALRLSAARDGAGLTYVFEQDVHEDLQDGRLCSVLEEWLPAADRFYLYYPGRAHMAPKLRVFIDYFCHKAILPSQQSHHR”, the protein production entry is reported as “failed”.

“MPSDSLRVGVLTGGGDCPGINAALRAVTKSLTLQHDAEVLGFLDGFRGVVDRNVEPLHYRDVSGILTRGGTILGASNKADPFNYLPRGGADVSAQVMRTYRTLDLDALVAIGGDGTMSIAHRLTDLGVDIVGVPKTIDNDLVGTDRTVGFDTAVSTATDAIDRIHTTAQSHHRVMIVETMGRYSGWIALHAGVASGTDVILLPEIEYEVETVADVCRDRERSGQRFTIVAVAEGARRKEGDYVVQERGDEYTDSIRLGGISRVLADQLREHLDTSIRTTVLGHMQRGGSPTAYDRTLATTLGTRAATLVAEGTTGVMVAVQNDAFTQVPLDEIAGKTRTVPLDDPLIASGLDVGTSFGVAVSDLSEAASHSKPASPIQP”: the protein production result is “failed”. Regarding “MNIPTTTTKGEQAKSQLIAAALAQFGEYGLHATTRDIAALAGQNIAAITYYFGSKEDLYLACAQWIADFLGEKFRPHAEKAERLFSQPAPDRDAIRELILLACKNMIMLLTQEDTVNLSKFISREQLSPTSAYQLVHEQVIDPLHTHLTRLVAAYTGCDANDTRMILHTHALLGEVLAFRLGKETILLRTGWPQFDEEKAELIYQTVTCHIDLILHGLTQRSLD”, the protein production entry is given as “not failed”. Consider “MSDPVSYTRKDSIAVISMDDGKVNALGPAMQQALNAAIDNADRDDVGALVITGNGRVFSGGFDLKILTSGEVQPAIDMLRGGFELAYRLLSYPKPVVMACTGHAIAMGAFLLSCGDHRVAAHAYNIQANEVAIGMTIPYAALEIMKLRLTRSAYQQATGLAKTFFGETALAAGFIDEIALPEVVVSRAEEAAREFAGLNQHAHAATKLRSRADALTAIRAGIDGIAAEFGL”, for which the protein production result is on record as “not failed”.

Take “MILLTSVLAIVSVILLTLPLLEAYSLNSSLVGGAVSPGATYSYKMNAVLINFYHNNSISHLLGNFSFTTGYINITMENGYATFSVKLYGQPAGENVTLADSFVLKASDHSSLFESFFPSGLVEAGEFVNVFNNTGQYYGAASAFSSVNVGKGTLFSTSQMVKLINVPEQPSGYFENVSRELNANSVYYIESPSHSFLSHIVFTGNSTVISALLGSSSVSNVTLLYISLEKTDVAVETLNVMHYVMHYIAVVVILWILGVVYMISLYRRVSLKQRR”: the protein production entry is given as “failed”. Take “MKILPFIARGTSYYLKMSVKKLVPFLVVGLMLAAGDSVYAYSRGNGSIARGDDYPAYYKNGSQEIDQWRMYSRQCTSFVAFRLSNVNGFEIPAAYGNANEWGHRARREGYRVDNTPTIGSITWSTAGTYGHVAWVSNVMGDQIEIEEYNYGYTESYNKRVIKANTMTGFIHFKDLDGGSVGNSQSSTSTGGTHYFKTKSAIKTEPLASGTVIDYYYPGEKVHYDQILEKDGYKWLSYTAYNGSYRYVQLEAVNKNPLGNSVLSSTGGTHYFKTKSAIKTEPLVSATVIDYYYPGEKVHYDQILEKDGYKWLSYTAYNGSRRYIQLEGVTSSQNYQNQSGNISSYGSHSSSTVGWKKINGSWYHFKSNGSKSTGWLKDGSSWYYLKLSGEMQTGWLKENGLWYYLGSSGAMKTGWYQVSGKWYYSYSSGALAVNTTVDGYRVNSDGERV”: the protein production entry is “failed”. The entry for “MDTLPHHLLDEILFRIDHRSLAMIQCTNRSLQSHISKTPNFASEYFSRIRSSLLYIATHGCPLICYHLYGDSRSPRTVETLTQCHILGYCSGLLLLFLNKNLCVANPLTKKFRFLNHSRSKFFPTDFTLRGGRQQVIGFAVDQTDRTTPSFKIVNIKEGAVHWLRNDGSIVAFNLKTEKARLIPIRFPKELCLKTLFTAVDNNLTLISATEEVIYVYAFHNILSDPKWVLVKQIRNGVLDEKRLYSWYVEAYDGKSLVLRETILKKDYYNKHLKQVLHGYDLRANKWEVIGSIPEWSPSGLDFYQFTPSPSSVIGLDDKEGEEILACDDKRIPSVNAIMRLIYGIS” is “failed”; for “MDFQHRPGGKTGSGGVASSSESNRDRRERLRQLALETIDINKDPYFMKNHLGSYECKLCLTLHNNEGSYLAHTQGKKHQTNLARRAAKEAKEAPAQPAPEKVKVEVKKFVKIGRPGYKVTKQRDSEMGQQSLLFQIDYPEIAEGIMPRHRFMSAYEQRIEPPDRRWQYLLMAAEPYETIAFKVPSREIDKAEGKFWTHWNRETKQFFLQFHFKMEKPPAPPSLPAGPPGVKRPPPPLMNGLPPRPPLPESLPPPPPGGLPLPPMPPTGPAPSGPPGPPQLPPPAPGVHPPAPVVHPPASGVHPPAPGVHPPAPGVHPPAPGVHPPTSGVHPPAPGVHPPAPGVHPPAPGVHPPAPGVHPPAPGVHPPPSAGVHPQAPGVHPAAPAVHPQAPGVHPPAPGMHPQAPGVHPQPPGVHPSAPGVHPQPPGVHPSNPGVHPPTPMPPMLRPPLPSEGPGNIPPPPPTN” it is “failed”. As for “MSKKSVLITSLMLFSMFFGAGNLIFPPMLGLSAGTNYLPAILGFLATSVLLPVLAIIAVVLSGENVKDMASRGGKIFGLVFPIAAYLSIGAFYALPRTGAVSYSTAVGVDNALYSGLFNFVFFAVALALSWNPNGIADKLGKWLTPALLTLIVVLVVLSVAKLDGTPGEPSSAYAQQPAGAGLLEGYMTMDAIAALAFGIVVISAFKYQKVNKVRTATVVSAFIAGILLALVYLGLGSIGQVVNGEFADGTAILNYAALSTMGQAGRIMFVAILILACMTTAVGLISATSEFFNSLLPGVKYHVWATVFALISFGVATMGLDTVLAVAAPVISFIYPSAITLVFLSLIEPLLFRLKWTYLFGIWTAVVWALFMSIPALNPFIEWAPLHSMSLGWVVPVLVASAIGLAIDWNKKGAQSVAKKESISV”, the protein production result is “failed”. Turning to “MNSTIIIVGILALVFIFLVFGVSSKPLRFIGKALFHVTLGVALLFIVNVVGTYFDFHLPINLGTATITSLLGLPGVAALVVIKLYIMPR”, the protein production entry is reported as “failed”.

Regarding “GRKYLVNFSDIYYIESVDKKTFVYLADEIYQTDLRLYQLLHDLQHDGFVQISKSCLLNINVLENIRPLFNSRMEATLLNGERVIVNRRYLPDVKEALKGIQ”, the protein production entry was “failed”. Next, “MTDACCLKGNEDKMVPRFGHGTWIGKAFNDTPEMLHERSLRQEKRLERANELMNDDSLQKLETAAMARSRSVDSAPLGNYTIWKNEYRRGKSFEDMLRLMQDQIIMARVYSGLAKFTNNLALHQEIETQLMKLAWEEESTDIDQEQRVLDSIRDMGQILARAHEQLYECKLVTNKLRAMLQTVEDELENEQTYITFLTQLASKALPDAIHCLTMRLNLEYHLLPLPMRNFPRRENLENPKLYHYALFSDNVLAASVVVNSTVMNAQDPSRHVFHLVTDKLNFGAMSMWFLLNPPGEATIHVQRFEDFTWLNSSYSPVLSQLESAAMKKFYFKTARSESVESGSENLKYRYPKYMSMLNHLRFYIPRIFPKLEKILFVDDDVVVQKDLTPLWSIDLKGKVNENFDPKFCGWAYGMNIFDLKEWKKNNITETYHFWQNLNENRTLWKLGTLPPGLITFYNLTQPLQRKWHLLGLGYDKGIDVKKIERSAVIHYNGHMKPWTEMGISKYQPYWTKYTNFDHPYIFTCRLFE”: “failed”; “MPLHPTSQDCVVEQSVDALRERERRFRMLADNMSQLAWTASPRGQVQWYNERWYAYTGATLEAMVALGWRSVVHPEHRERVMARLQYCFATGSVWEDTFALRGKDGAFNWFLSRALPMRDAQGHITHWLGTHTDITAQVNAEEALRELNESLELRVAERTRELAKANELLQVEIAERAQAEEVLRHAQKMDAIGQLTGGIAHDFNNMLSGVLGALDMIRLRIGAQRFGEVDRYVDAAVSSANRAAALTQRLLTFARRQSLSVGTVDINCMVRSMEELLRGTVGNHAQLHIELEEGLSAIQTDEHQLENALLNLVINARDAVPVAGLISVRSQALRLVAQEGALAAGDYVRLSVEDNGCGIAQDVIDRVFDPFFTTKPVGQGTGLGLSMVYGFIKQTGGHVQIKSEQGQGTRICLYLPCGAATA”: “failed”. The entry for “MQTKVINFNDKFSLFNQHWSPRVIAEMNDYQFKLVKVEGEFVWHEHADTDEVFIVMEGTLQIAFRDQNITLQAGEMYVIPKGVEHKPMAKEECKIMIIEPR” is “not failed”; for “MAILFAVVARGTTILAKHAWCGGNFLEVTEQILAKIPSENNKLTYSHGNYLFHYICQDRIVYLCITDDDFERSRAFNFLNEIKKRFQTTYGSRAQTAPPYAMNSEFSSVLAAQLKHHS” it is “not failed”; for “MNAENNQTTTTHSKVISHVFCTGTAKLGSVGPPIGLVDIGVSEVAYIFRVSLPGIEKNQDKIKCEIQREGRVCIQGVIPEIAIPSDTGCLYRMQVQQLCPPGPFSITFNLPGQVDPRLFSPNFRSDGIFEVVVVKLGVRIPTS” it is “failed”.

(Values after a protein production outcome set (Wang et al. 2014).)
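Note: failed if final PepcDB status was selected cloned or expressed and not failed if soluble or beyond.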
